For the assay, the target named is biotinylated CD3 epsilon epitope peptide. The assay is described as follows: SPR Biacore, method of Ref. Ex. 11. (Surface plasmon resonance follows binding to a sensor surface in real time, without labels.)

B1: CE115HA000 (antibody, V domains shown)
VH: QVQLVESGGGVVQPGRSLRLSCAASGFTFSNAWMHWVRQAPGKGLEWVAQIKAKSNNYATYYAESVKGRFTISRDDSKNSLYLQMNSLKTEDTAVYYCRYVHYGAYYGVDAWGQGTTVTVSS
VL: DIVMTQSPLSLPVTPGEPASISCRSSQSLVHSNRNTYLHWYQQKPGQAPRLLIYKVSNRFSGVPDRFSGSGSGTDFTLKISRVEAEDVGVYYCGQGTQVPYTFGQGTKLEIK
The Kd is the concentration at which binding is half-saturated. A high value points to a looser complex. Take B1: the Kd was determined as 110 nM.

For the origin of these results see US20220112296A1.
